3 molecules from patent publication US20120107932A1 (published 2012) can be followed below.

B1: NMHC II-A artificial polypeptide (Seq ID No: 2) (peptide)
peptide: GAGDGSDEE
B2: NMHC II-A artificial polypeptide (Seq ID No: 3) (peptide)
peptide: GAGDGSDEEVDGKA
B3: NMHC II-A artificial polypeptide (Seq ID No: 4) (peptide)
peptide: KADGAEAKPAE

This assay deals with PRRS virus (PRRSV). The assay is described as follows: cell-based or functional assay.
As for B1, the “CPE caused by PRRSV on Marc-145 and PAM cells, blocker at 1 µg/well ('++' means CPE in 50% cells)” value (shortened to “CPE caused … ('++' means CPE in 50% cells)”) was determined as 50 % cells with CPE. As to B2, the “CPE caused … ('++' means CPE in 50% cells)” value is 50 % cells with CPE. For the molecule B3, the “CPE caused … ('++' means CPE in 50% cells)” value turned out to be 50 % cells with CPE.
